Measured values: patent US20260224621A1

Key:
[1] = molecular target: CD20 on Raji lymphocyte cells and primary CLL cells (human) (UniProt P11836); assay: cell-based or functional assay
[2] = molecular target: CD19 on Raji cells, primary CLL cells and melanoma cell lines made to overexpress CD19 (UniProt P15391); assay: cell-based or functional assay

Substance	specific killing of Raji cells by YTS cells expressing CD16 (ADCC), 3 hours [1] [%]	specific killing of Raji cells 24 hours after coculture, YTS CAR-CD19 cells (non-irradiated, 1000, 2500 or 3000 cGy) [2] [%]	specific killing of Raji cells by YTS cells expressing CAR-CD19 [2] [%]	specific killing of Raji cells, same day (2-3 hours), YTS CAR-CD19 cells irradiated with 1000 cGy [2] [%]	specific killing of Raji cells, same day (2-3 hours), YTS CAR-CD19 cells irradiated with 2500 cGy [2] [%]	specific killing of Raji cells, same day (2-3 hours), non-irradiated YTS CAR-CD19 cells [2] [%]
Rituximab (anti-CD20) (antibody)	> 60	–	–	–	–	–
anti-CD19 CAR FMC63-28-3z (FMC63 scFV against CD19, CD28 costimulatory domain, CD3zeta signaling domain; Addgene #135991), expressed on YTS cells (from UniProt P10747 180-220; P20963 52-164)	–	> 55	> 50	25	23	18
